Test results reported in patent US20250075002A1.
Values belong to the substance of their own block, whether it stands above or below them.

Experiments:
[1] = target: MUC1 as expressed on normal activated human T cells (human) (UniProt P15941); experiment: FACS, PHA-L-activated human PBMC, live αβTCR+ gate, Donor 191271003C; antibody 10 µg/mL by paragraph 182
[2] = target: MUC1 as expressed on normal activated human T cells (human) (UniProt P15941); experiment: FACS, PHA-L-activated human PBMC, live αβTCR+ gate, Donor 191271715C; antibody 10 µg/mL by paragraph 182
[3] = target: MUC1 as expressed on normal activated human T cells (human) (UniProt P15941); experiment: FACS, PHA-L-activated human PBMC, live αβTCR+ gate, Donor 3011029; antibody 10 µg/mL by paragraph 182
[4] = target: MUC1 as expressed on normal activated human T cells (human) (UniProt P15941); experiment: FACS, PHA-L-activated human PBMC, live αβTCR+ gate, Donor 3009223; antibody 10 µg/mL by paragraph 182
[5] = target: MUC1 as expressed on normal activated human T cells (human) (UniProt P15941); experiment: FACS, PHA-L-activated human PBMC, live αβTCR+ gate, Donor 191180405C; antibody 10 µg/mL by paragraph 182
[6] = target: MUC1 as expressed on normal activated human T cells (human) (UniProt P15941); experiment: FACS, PHA-L-activated human PBMC, live αβTCR+ gate, Donor 190980805C; antibody 10 µg/mL by paragraph 182
[7] = target: human CD16B (NA1) on NK92mi cells (human) (UniProt O75015); experiment: flow cytometry on NK92mi/CD16B (NA1) cells; control
[8] = target: human CD16B (NA2) on NK92mi cells (human) (UniProt O75015); experiment: flow cytometry on NK92mi/CD16B (NA2) cells; control
[9] = target: human CD16A (V158) on NK92mi cells (human) (UniProt P08637); experiment: flow cytometry on NK92mi/CD16A cells (V158 by paragraph 201); control
[10] = target: MUC1 as expressed on normal activated human T cells (human) (UniProt P15941); experiment: FACS, PHA-L-activated human PBMC, live αβTCR+ gate, Donor 3011029; concentration of the isotype control not told
[11] = target: MUC1 as expressed on normal activated human T cells (human) (UniProt P15941); experiment: FACS, PHA-L-activated human PBMC, live αβTCR+ gate, Donor 3009223; concentration of the isotype control not told
[12] = target: MUC1 as expressed on normal activated human T cells (human) (UniProt P15941); experiment: FACS, PHA-L-activated human PBMC, live αβTCR+ gate, Donor 3011029; concentration of the isotype control not told; remark: listed apart in the source
[13] = target: MUC1 as expressed on normal activated human T cells (human) (UniProt P15941); experiment: FACS, PHA-L-activated human PBMC, live αβTCR+ gate, Donor 3009223; concentration of the isotype control not told; remark: listed apart in the source
[14] = target: MUC1 as expressed on normal activated human T cells (human) (UniProt P15941); experiment: FACS, PHA-L-activated human PBMC, live αβTCR+ gate, Donor 191271003C; concentration of the isotype control not told
[15] = target: MUC1 as expressed on normal activated human T cells (human) (UniProt P15941); experiment: FACS, PHA-L-activated human PBMC, live αβTCR+ gate, Donor 191271715C; concentration of the isotype control not told
[16] = target: MUC1 as expressed on normal activated human T cells (human) (UniProt P15941); experiment: FACS, PHA-L-activated human PBMC, live αβTCR+ gate, Donor 191271003C; concentration of the isotype control not told; remark: listed apart in the source
[17] = target: MUC1 as expressed on normal activated human T cells (human) (UniProt P15941); experiment: FACS, PHA-L-activated human PBMC, live αβTCR+ gate, Donor 191271715C; concentration of the isotype control not told; remark: listed apart in the source
[18] = target: MUC1 as expressed on normal activated human T cells (human) (UniProt P15941); experiment: FACS, PHA-L-activated human PBMC, live αβTCR+ gate, Donor 191180405C; concentration of the isotype control not told
[19] = target: MUC1 as expressed on normal activated human T cells (human) (UniProt P15941); experiment: FACS, PHA-L-activated human PBMC, live αβTCR+ gate, Donor 190980805C; concentration of the isotype control not told
[20] = target: MUC1 as expressed on normal activated human T cells (human) (UniProt P15941); experiment: FACS, PHA-L-activated human PBMC, live αβTCR+ gate, Donor 191180405C; concentration of the isotype control not told; remark: listed apart in the source
[21] = target: MUC1 as expressed on normal activated human T cells (human) (UniProt P15941); experiment: FACS, PHA-L-activated human PBMC, live αβTCR+ gate, Donor 190980805C; concentration of the isotype control not told; remark: listed apart in the source

Sequence of MUC1 as expressed on normal activated human T cells (human) (P15941 24-1255): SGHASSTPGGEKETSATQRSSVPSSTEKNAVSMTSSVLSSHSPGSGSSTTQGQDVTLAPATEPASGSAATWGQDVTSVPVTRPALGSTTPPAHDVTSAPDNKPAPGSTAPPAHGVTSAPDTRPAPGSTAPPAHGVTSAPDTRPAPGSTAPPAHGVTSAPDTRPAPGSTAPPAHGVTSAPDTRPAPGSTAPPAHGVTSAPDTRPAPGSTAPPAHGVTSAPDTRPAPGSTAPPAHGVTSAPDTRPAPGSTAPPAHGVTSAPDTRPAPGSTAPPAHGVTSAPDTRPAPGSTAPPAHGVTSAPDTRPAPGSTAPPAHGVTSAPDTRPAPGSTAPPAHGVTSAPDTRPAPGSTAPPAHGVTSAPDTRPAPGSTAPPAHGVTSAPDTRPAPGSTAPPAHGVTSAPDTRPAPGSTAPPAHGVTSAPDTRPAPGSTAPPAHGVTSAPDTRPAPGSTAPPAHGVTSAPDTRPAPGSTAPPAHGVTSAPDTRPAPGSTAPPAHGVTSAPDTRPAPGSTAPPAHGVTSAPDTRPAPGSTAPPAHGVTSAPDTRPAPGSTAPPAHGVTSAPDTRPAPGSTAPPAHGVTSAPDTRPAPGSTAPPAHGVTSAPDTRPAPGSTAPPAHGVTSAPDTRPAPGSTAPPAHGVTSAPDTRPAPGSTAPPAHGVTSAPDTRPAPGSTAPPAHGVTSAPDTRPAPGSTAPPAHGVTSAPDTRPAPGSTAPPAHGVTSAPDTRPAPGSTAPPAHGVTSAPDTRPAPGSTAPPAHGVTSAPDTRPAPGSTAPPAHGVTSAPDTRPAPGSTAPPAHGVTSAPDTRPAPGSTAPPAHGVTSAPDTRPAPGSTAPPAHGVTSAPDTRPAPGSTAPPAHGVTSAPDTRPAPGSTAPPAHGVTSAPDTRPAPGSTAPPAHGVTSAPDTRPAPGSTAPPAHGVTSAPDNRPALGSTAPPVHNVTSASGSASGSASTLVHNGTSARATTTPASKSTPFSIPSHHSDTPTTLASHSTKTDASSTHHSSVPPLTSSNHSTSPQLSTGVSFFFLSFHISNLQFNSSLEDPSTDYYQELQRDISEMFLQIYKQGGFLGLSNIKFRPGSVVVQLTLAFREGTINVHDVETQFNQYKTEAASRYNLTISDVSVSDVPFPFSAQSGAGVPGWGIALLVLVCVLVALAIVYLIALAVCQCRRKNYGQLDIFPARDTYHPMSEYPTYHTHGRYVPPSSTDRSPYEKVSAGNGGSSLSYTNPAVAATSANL
Sequence of human CD16B (NA2) on NK92mi cells (human) (O75015 17-200 N65S limits assumed): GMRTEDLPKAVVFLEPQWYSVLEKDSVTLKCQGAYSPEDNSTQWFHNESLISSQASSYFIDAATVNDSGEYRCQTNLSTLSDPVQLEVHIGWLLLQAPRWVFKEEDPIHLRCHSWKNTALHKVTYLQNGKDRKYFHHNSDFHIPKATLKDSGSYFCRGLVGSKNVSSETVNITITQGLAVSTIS
Sequence of human CD16A (V158) on NK92mi cells (human) (P08637 17-254 F176V limits assumed): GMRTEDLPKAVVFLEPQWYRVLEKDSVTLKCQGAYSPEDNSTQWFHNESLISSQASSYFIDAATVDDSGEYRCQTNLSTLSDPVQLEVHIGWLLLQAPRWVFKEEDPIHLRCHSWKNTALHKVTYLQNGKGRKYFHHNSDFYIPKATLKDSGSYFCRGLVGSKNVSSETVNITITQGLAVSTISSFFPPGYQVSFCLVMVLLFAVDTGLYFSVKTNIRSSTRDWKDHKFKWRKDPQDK
Sequence of human CD16B (NA1) on NK92mi cells (human) (O75015 other isoform, or with tags, fused parts or gaps limits assumed): as the sequence (O75015 17-200 N65S limits assumed) above, with S20R, S49N, N66D, I90V counted along it

percent of αβTCR+ cells in the MUC1-positive gate (dashed box) [1]: 16.9%
percent of αβTCR+ cells in the MUC1-positive gate (dashed box) [2]: 16.5%
Substance: 16A (Biolegend, cat. #355608) (antibody)

percent of αβTCR+ cells in the MUC1-positive gate (dashed box) [3]: 23.2%
percent of αβTCR+ cells in the MUC1-positive gate (dashed box) [4]: 10%
percent of αβTCR+ cells in the MUC1-positive gate (dashed box) [5]: 28.1%
percent of αβTCR+ cells in the MUC1-positive gate (dashed box) [6]: 28.2%
Substance: HMFG1 (Abcam, cat. #ab215670) (antibody)

EC50 [7]: 10.3 µg/mL
EMAX [7]: 7.46
EC50 [8]: 0.314 µg/mL
EMAX [8]: 7.66
EC50 [9]: 0.0112 µg/mL
EMAX [9]: 7.55
Substance: Human IgG (control column of Tables 10-12) (antibody)

percent of αβTCR+ cells in the MUC1-positive gate (dashed box) [10]: 0.26%
percent of αβTCR+ cells in the MUC1-positive gate (dashed box) [11]: 1.17%
percent of αβTCR+ cells in the MUC1-positive gate (dashed box) [12]: 0.36%
percent of αβTCR+ cells in the MUC1-positive gate (dashed box) [13]: 0.05%
percent of αβTCR+ cells in the MUC1-positive gate (dashed box) [14]: 0.91%
percent of αβTCR+ cells in the MUC1-positive gate (dashed box) [15]: 1.04%
percent of αβTCR+ cells in the MUC1-positive gate (dashed box) [16]: 0.11%
percent of αβTCR+ cells in the MUC1-positive gate (dashed box) [17]: 0.04%
percent of αβTCR+ cells in the MUC1-positive gate (dashed box) [18]: 2.49%
percent of αβTCR+ cells in the MUC1-positive gate (dashed box) [19]: 1.86%
percent of αβTCR+ cells in the MUC1-positive gate (dashed box) [20]: 0.29%
percent of αβTCR+ cells in the MUC1-positive gate (dashed box) [21]: 0.15%
Substance: Isotype (antibody)
